Four molecules from patent publication US20100099627A1 (YEDA RESEARCH AND DEVELOPMENT, published 2010) can be followed below.

One series deals with T1, APA-GFP-ERK2, P63086.
T1 chain: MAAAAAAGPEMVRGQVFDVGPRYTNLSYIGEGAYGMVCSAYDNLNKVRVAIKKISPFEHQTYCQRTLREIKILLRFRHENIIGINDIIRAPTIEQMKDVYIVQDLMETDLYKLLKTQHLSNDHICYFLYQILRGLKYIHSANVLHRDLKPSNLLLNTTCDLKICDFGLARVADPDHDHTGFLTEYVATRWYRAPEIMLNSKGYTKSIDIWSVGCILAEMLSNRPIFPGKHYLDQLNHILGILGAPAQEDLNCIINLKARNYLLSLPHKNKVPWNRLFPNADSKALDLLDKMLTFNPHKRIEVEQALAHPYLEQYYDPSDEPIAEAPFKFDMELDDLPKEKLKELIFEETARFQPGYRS

Another series deals with T2, TEY-AAA-ERK2, P63086.
T2 chain: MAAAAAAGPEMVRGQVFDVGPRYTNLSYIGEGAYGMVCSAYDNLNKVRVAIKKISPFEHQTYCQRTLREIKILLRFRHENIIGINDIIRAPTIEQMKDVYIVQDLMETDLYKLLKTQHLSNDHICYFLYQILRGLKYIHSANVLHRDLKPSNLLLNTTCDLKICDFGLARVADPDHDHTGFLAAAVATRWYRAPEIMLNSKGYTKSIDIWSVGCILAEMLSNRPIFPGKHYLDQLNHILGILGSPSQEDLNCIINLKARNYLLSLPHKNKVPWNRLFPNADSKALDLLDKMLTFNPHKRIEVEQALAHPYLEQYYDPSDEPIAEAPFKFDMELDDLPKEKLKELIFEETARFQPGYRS

A further series concerns the target T3, WT-GFP-ERK2, P63086.
T3 chain: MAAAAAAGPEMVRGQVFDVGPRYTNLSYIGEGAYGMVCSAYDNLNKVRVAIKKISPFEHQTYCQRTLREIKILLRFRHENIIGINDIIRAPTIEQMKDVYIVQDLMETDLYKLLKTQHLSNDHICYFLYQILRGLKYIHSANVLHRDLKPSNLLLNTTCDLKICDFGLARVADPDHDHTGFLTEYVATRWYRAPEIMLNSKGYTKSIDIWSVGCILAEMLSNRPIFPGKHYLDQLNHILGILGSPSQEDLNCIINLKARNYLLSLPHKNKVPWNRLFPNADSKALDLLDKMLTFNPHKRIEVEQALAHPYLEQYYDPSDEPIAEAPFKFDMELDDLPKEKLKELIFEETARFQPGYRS

The next series deals with T4, importin-β (UniProt Q14974 1-876).
T4 construct: also called Impβ
The series can be described thus: co-immunoprecipitation with anti GFP Ab from HeLa cells, Western blot with anti importin-β Ab. The method, then:
FIG. 9A. […] The extracts of the treated cells were then subjected to coimmunoprecipitation using A/G beads pre-conjugated with anti GFP Ab and mild washes. […] The equal amount of immunoprecipitated ERKs was determined with anti GFP (αGFP; IP) Ab. FIG. 19B. […] HeLa cells overexpressing 2GFP, 2GFP-SPS, 2GFP-APA and 2GFP-EPE constructs were subjected to coimmunoprecipitation as described in FIG. 19A (without EGF stimulation). FIG. 19C. […] This was followed by mild washing, and the beads were then subjected to Western blot analysis using anti His (αHis) and anti αGFP Abs.

B1: active GST-ERK2 (protein)
chain: MAAAAAAGPEMVRGQVFDVGPRYTNLSYIGEGAYGMVCSAYDNLNKVRVAIKKISPFEHQTYCQRTLREIKILLRFRHENIIGINDIIRAPTIEQMKDVYIVQDLMETDLYKLLKTQHLSNDHICYFLYQILRGLKYIHSANVLHRDLKPSNLLLNTTCDLKICDFGLARVADPDHDHTGFLTEYVATRWYRAPEIMLNSKGYTKSIDIWSVGCILAEMLSNRPIFPGKHYLDQLNHILGILGSPSQEDLNCIINLKARNYLLSLPHKNKVPWNRLFPNADSKALDLLDKMLTFNPHKRIEVEQALAHPYLEQYYDPSDEPIAEAPFKFDMELDDLPKEKLKELIFEETARFQPGYRS
For B1, the “^32P incorporation, in vitro kinase assay (reduction against GFP-ERK2)” value was “that of SPS-APA was reduced by ˜80%” in the series with APA-GFP-ERK2, P63086 and “The phosphorylation of TEY-AAA was reduced by ˜25%” with TEY-AAA-ERK2, P63086. For the same molecule, in the series with WT-GFP-ERK2, P63086, the “^32P incorporation, in vitro kinase assay” value is “^32P incorporation to GFP-ERK2 was detected mainly when this protein was incubated with Act-ERK2”.

B2: WT-GFP-ERK2 (enzyme, UniProt P63086 1-358, looked up)
chain: MAAAAAAGPEMVRGQVFDVGPRYTNLSYIGEGAYGMVCSAYDNLNKVRVAIKKISPFEHQTYCQRTLREIKILLRFRHENIIGINDIIRAPTIEQMKDVYIVQDLMETDLYKLLKTQHLSNDHICYFLYQILRGLKYIHSANVLHRDLKPSNLLLNTTCDLKICDFGLARVADPDHDHTGFLTEYVATRWYRAPEIMLNSKGYTKSIDIWSVGCILAEMLSNRPIFPGKHYLDQLNHILGILGSPSQEDLNCIINLKARNYLLSLPHKNKVPWNRLFPNADSKALDLLDKMLTFNPHKRIEVEQALAHPYLEQYYDPSDEPIAEAPFKFDMELDDLPKEKLKELIFEETARFQPGYRS
modifications: SPS domain (Ser244, Ser246) and TEY motif phosphorylated upon stimulation of the cells (EGF, TPA, VOOH); the state depends on the cell treatment named in each row
notes: Overexpressed in HeLa or COS7 cells and immunoprecipitated with anti GFP Ab; also called WT-ERK2; WT-ERK; not shown: GFP encoded by pEGFP C1 (Clontech)
As for B2, the binding result with importin-β is listed as “no binding”.

B3: EPE-GFP-ERK2 (enzyme, UniProt P63086 1-358, looked up)
chain: MAAAAAAGPEMVRGQVFDVGPRYTNLSYIGEGAYGMVCSAYDNLNKVRVAIKKISPFEHQTYCQRTLREIKILLRFRHENIIGINDIIRAPTIEQMKDVYIVQDLMETDLYKLLKTQHLSNDHICYFLYQILRGLKYIHSANVLHRDLKPSNLLLNTTCDLKICDFGLARVADPDHDHTGFLTEYVATRWYRAPEIMLNSKGYTKSIDIWSVGCILAEMLSNRPIFPGKHYLDQLNHILGILGEPEQEDLNCIINLKARNYLLSLPHKNKVPWNRLFPNADSKALDLLDKMLTFNPHKRIEVEQALAHPYLEQYYDPSDEPIAEAPFKFDMELDDLPKEKLKELIFEETARFQPGYRS
notes: also called GFP-ERK244/6E; ERK-EE; not shown: GFP encoded by pEGFP C1 (Clontech)
With B3, the binding result in the series with importin-β was “no binding”.

B4: APA-GFP-ERK2 (enzyme, UniProt P63086 1-358, looked up)
chain: MAAAAAAGPEMVRGQVFDVGPRYTNLSYIGEGAYGMVCSAYDNLNKVRVAIKKISPFEHQTYCQRTLREIKILLRFRHENIIGINDIIRAPTIEQMKDVYIVQDLMETDLYKLLKTQHLSNDHICYFLYQILRGLKYIHSANVLHRDLKPSNLLLNTTCDLKICDFGLARVADPDHDHTGFLTEYVATRWYRAPEIMLNSKGYTKSIDIWSVGCILAEMLSNRPIFPGKHYLDQLNHILGILGAPAQEDLNCIINLKARNYLLSLPHKNKVPWNRLFPNADSKALDLLDKMLTFNPHKRIEVEQALAHPYLEQYYDPSDEPIAEAPFKFDMELDDLPKEKLKELIFEETARFQPGYRS
notes: also called GFP-ERK244/6A; ERK-AA; not shown: GFP encoded by pEGFP C1 (Clontech)
B4: the binding result in the series with importin-β is “no binding”.
